According to patent publication US20120244164A1:

How the values were obtained:
Human c-Met (human) [1] = target: Human c-Met (human) (UniProt P08581); assay: cell-based or functional assay
Human c-Met (human) [2] = target: Human c-Met (human) (UniProt P08581); assay: competition flow cytometry: 1 nM biotinylated hHGF on A549 cells
[3] = target: cynomolgus c-Met (cynomolgus monkey); assay: competition FACS: 0.5 nM biotinylated HGF on BAF3 cells with cynomolgus c-Met
[4] = target: recombinant human c-Met/Fc chimera (R&D systems) (human); assay: HGF/c-Met competition Alphascreen, in absence of HSA
Sequence of recombinant human c-Met/Fc chimera (R&D systems) (human) (chain, as listed by the source mutant limits assumed): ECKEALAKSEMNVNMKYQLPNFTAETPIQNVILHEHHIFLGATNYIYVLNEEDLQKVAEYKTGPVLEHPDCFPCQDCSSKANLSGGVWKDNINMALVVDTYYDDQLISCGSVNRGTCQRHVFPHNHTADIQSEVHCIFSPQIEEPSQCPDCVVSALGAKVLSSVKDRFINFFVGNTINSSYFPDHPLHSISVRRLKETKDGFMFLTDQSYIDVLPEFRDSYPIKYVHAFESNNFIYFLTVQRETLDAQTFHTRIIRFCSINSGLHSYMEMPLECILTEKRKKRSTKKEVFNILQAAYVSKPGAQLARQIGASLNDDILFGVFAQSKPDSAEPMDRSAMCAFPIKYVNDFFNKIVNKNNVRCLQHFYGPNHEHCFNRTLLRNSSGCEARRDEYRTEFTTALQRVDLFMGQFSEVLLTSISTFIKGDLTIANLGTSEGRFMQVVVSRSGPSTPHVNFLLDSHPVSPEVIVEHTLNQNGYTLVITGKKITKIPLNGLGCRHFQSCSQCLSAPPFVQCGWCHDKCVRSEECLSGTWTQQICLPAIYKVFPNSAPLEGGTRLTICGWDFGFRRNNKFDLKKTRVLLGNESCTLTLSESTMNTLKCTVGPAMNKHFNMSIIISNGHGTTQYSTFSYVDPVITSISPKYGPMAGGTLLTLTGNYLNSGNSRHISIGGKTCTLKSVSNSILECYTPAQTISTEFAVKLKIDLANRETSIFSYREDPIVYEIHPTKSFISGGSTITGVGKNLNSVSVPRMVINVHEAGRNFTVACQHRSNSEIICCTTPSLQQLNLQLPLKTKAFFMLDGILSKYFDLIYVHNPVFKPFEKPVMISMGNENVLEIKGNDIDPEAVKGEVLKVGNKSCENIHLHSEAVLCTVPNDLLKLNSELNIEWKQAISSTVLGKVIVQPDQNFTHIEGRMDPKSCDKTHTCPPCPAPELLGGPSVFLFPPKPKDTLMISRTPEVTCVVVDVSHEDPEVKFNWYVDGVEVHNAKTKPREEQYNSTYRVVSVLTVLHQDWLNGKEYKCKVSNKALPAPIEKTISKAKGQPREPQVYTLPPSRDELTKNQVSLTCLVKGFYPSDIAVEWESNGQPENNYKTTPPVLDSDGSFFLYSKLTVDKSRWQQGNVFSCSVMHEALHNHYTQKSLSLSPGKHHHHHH

[5] = target: recombinant human c-Met/Fc chimera (R&D systems) (human); assay: HGF/c-Met competition Alphascreen, in presence of 5 uM HSA
[6] = target: recombinant human c-Met/Fc chimera (R&D systems) (human); assay: HGF/c-Met competition Alphascreen: biotinylated hHGF, human c-Met/Fc

Sequence of Human c-Met (human) (P08581 25-1390 limits assumed): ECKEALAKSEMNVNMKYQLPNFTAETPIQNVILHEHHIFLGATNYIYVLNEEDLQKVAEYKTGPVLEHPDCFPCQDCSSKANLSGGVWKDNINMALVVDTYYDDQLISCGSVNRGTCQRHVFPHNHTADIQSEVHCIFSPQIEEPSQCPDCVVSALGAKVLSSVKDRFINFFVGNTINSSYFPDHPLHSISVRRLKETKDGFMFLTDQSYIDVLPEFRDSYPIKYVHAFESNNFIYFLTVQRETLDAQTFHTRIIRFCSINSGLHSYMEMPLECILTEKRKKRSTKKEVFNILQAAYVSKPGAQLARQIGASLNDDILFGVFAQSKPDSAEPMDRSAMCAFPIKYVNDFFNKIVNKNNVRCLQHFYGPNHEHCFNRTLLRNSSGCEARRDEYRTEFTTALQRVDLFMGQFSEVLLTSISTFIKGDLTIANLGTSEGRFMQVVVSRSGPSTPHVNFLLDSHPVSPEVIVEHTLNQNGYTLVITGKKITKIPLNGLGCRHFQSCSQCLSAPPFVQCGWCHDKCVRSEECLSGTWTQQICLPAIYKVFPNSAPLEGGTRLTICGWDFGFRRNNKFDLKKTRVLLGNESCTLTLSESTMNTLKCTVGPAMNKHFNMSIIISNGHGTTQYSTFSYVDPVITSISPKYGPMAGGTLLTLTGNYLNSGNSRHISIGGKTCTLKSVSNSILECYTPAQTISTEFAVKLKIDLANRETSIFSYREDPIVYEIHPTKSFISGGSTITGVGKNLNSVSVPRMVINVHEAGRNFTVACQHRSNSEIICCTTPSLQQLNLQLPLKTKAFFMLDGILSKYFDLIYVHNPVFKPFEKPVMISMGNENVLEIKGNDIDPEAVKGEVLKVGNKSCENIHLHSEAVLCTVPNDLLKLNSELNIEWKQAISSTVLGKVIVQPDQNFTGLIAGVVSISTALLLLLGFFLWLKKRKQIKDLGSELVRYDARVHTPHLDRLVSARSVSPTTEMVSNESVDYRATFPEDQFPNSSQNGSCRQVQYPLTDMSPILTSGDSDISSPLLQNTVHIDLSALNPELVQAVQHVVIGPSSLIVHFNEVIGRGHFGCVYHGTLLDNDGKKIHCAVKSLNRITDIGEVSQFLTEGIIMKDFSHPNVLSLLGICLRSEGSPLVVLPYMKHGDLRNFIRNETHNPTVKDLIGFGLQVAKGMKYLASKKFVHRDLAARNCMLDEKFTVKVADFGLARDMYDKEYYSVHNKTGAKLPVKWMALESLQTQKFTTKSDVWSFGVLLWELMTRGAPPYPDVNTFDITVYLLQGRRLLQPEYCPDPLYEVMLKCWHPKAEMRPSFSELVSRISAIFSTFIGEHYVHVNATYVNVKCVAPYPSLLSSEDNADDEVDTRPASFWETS
Sequence of cynomolgus c-Met (cynomolgus monkey) (A0M8R7 25-1381 S170N/I621T limits assumed): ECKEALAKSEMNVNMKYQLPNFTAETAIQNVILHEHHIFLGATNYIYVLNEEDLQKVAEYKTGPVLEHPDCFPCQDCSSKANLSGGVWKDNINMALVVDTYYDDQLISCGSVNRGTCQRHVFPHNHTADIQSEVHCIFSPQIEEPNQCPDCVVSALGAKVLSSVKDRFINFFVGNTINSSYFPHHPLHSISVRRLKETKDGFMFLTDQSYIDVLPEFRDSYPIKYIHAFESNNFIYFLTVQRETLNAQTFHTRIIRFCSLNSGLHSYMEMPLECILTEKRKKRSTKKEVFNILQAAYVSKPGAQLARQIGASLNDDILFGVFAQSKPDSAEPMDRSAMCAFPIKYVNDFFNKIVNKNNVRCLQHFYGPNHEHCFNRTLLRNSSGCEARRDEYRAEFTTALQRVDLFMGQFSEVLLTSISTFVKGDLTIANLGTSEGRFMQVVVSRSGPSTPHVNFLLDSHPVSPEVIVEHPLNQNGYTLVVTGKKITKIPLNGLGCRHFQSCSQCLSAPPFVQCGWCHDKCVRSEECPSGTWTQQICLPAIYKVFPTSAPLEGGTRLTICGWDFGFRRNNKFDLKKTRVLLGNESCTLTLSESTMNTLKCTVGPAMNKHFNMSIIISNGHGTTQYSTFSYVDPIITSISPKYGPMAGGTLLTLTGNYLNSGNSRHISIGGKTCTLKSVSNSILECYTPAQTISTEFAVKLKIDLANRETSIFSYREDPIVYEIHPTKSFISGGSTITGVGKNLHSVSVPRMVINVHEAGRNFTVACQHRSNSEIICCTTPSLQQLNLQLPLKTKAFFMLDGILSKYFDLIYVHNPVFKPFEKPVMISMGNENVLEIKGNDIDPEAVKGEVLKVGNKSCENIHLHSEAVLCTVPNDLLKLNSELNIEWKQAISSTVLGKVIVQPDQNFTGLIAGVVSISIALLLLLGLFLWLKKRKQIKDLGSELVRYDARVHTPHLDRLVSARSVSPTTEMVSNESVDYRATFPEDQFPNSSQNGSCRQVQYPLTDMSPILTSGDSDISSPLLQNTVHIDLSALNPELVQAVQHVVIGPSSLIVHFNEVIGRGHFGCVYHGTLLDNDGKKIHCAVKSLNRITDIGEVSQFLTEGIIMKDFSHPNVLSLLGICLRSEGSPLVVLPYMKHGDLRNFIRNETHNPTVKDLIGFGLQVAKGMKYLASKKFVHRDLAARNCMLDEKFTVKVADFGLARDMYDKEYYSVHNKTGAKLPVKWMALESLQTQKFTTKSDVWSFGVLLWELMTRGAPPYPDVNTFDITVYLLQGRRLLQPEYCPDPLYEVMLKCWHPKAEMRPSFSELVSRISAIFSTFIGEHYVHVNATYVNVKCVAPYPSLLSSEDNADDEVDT

| Substance | concentration of maximal c-Met phosphorylation in A549 cells (Human c-Met (human) [1]) | IC50 (Human c-Met (human) [2]) | IC50 [3] | % inhibition of HGF-dependent A549 cell migration (Human c-Met (human) [1]) | % inhibition of HGF-dependent c-Met phosphorylation, A549 cells, experiment 1 (Human c-Met (human) [1]) | % inhibition of HGF-dependent c-Met phosphorylation, A549 cells, experiment 2 (Human c-Met (human) [1]) | % inhibition of HGF-dependent proliferation of BxPC3 cells (Human c-Met (human) [1]) | IC50, HGF-dependent A549 cell migration (Human c-Met (human) [1]) | IC50, HGF-dependent c-Met phosphorylation, A549 cells, experiment 1 (Human c-Met (human) [1]) | IC50, HGF-dependent c-Met phosphorylation, A549 cells, experiment 2 (Human c-Met (human) [1]) | IC50, HGF-dependent proliferation of BxPC3 cells (Human c-Met (human) [1]) | IC50 [4] | IC50 [5] | % inhibition [6] | IC50 [6] |
| --- | --- | --- | --- | --- | --- | --- | --- | --- | --- | --- | --- | --- | --- | --- | --- |
| anti-c-Met antibody 5D5 | 37 nM | 2.72 nM | 6.7 nM |  |  |  |  |  |  |  |  |  |  |  |  |
| anti-c-Met antibody fragment 5D5 Fab from mAb |  | 11.3 nM |  | 112% | 96.4% | 95.9% | 94.8% | 5.48 nM | 10.4 nM | 9.09 nM | 34.3 nM | 3.2 nM | 3.1 nM | 101% | 1.3 nM |
